Laboratory results as given in patent publication US20080014191A1.

Biological target: wild-type cystic fibrosis transmembrane conductance regulator (CFTR) (Homo sapiens (Human)) (UniProt P13569)
Test: CFTR co-IP, MudPIT MS; BHK wt

wild-type cystic fibrosis transmembrane conductance regulator (CFTR) (Homo sapiens (Human)), sequence (P13569 whole entry): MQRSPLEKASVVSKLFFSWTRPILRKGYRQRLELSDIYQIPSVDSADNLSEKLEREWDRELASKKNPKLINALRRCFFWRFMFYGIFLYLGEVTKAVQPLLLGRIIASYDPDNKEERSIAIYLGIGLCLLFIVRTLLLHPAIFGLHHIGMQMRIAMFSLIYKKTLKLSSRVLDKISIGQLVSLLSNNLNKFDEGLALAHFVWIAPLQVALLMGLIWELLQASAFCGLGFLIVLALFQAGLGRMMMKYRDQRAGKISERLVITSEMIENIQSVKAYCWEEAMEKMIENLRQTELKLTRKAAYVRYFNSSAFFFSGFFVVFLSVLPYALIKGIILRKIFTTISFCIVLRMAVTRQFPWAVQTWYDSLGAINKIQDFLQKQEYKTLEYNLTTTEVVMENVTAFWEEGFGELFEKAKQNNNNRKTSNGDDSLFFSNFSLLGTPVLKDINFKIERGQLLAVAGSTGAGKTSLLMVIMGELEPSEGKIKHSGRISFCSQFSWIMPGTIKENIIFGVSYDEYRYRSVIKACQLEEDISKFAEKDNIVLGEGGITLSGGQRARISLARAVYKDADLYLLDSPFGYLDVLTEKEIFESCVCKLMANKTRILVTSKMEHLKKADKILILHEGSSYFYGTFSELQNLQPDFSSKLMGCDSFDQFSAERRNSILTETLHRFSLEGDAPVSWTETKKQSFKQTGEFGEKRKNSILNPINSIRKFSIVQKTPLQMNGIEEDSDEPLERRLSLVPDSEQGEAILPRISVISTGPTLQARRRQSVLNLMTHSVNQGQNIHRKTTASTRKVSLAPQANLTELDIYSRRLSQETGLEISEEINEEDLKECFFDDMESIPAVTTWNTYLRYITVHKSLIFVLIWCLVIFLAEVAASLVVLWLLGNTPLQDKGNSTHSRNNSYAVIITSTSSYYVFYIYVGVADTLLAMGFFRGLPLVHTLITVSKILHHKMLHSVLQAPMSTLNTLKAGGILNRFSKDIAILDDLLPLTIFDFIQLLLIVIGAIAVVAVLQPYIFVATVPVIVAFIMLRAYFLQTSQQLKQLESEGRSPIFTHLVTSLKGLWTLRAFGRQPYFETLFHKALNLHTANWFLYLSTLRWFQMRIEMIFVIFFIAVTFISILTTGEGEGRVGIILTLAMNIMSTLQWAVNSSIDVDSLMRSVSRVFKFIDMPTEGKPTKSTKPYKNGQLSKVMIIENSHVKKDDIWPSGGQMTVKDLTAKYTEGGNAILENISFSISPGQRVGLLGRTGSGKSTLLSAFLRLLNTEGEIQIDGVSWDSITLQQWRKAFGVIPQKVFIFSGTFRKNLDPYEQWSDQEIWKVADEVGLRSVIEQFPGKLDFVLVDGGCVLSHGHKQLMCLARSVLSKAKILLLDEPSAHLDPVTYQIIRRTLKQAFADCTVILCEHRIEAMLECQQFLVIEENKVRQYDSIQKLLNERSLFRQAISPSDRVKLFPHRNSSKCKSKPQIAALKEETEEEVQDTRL

B1: Calnexin (protein, UniProt P27824 21-592, looked up)
chain: HDGHDDDVIDIEDDLDDVIEEVEDSKPDTTAPPSSPKVTYKAPVPTGEVYFADSFDRGTLSGWILSKAKKDDTDDEIAKYDGKWEVEEMKESKLPGDKGLVLMSRAKHHAISAKLNKPFLFDTKPLIVQYEVNFQNGIECGGAYVKLLSKTPELNLDQFHDKTPYTIMFGPDKCGEDYKLHFIFRHKNPKTGIYEEKHAKRPDADLKTYFTDKKTHLYTLILNPDNSFEILVDQSVVNSGNLLNDMTPPVNPSREIEDPEDRKPEDWDERPKIPDPEAVKPDDWDEDAPAKIPDEEATKPEGWLDDEPEYVPDPDAEKPEDWDEDMDGEWEAPQIANPRCESAPGCGVWQRPVIDNPNYKGKWKPPMIDNPSYQGIWKPRKIPNPDFFEDLEPFRMTPFSAIGLELWSMTSDIFFDNFIICADRRIVDDWANDGWGLKKAADGAAEPGVVGQMIEAAEERPWLWVVYILTVALPVFLVILFCCSGKKQTSGMEYKKTDAPQPDVKEEEEEKEEEKDKGDEEEEGEEKLEEKQKSDAEEDGGTVSQEEEDRKPKAEEDEILNRSPRNRKPRRE
  % sequence coverage: 10%
  total spectra: 7 spectra
  unique spectra: 4 spectra
